Laboratory results as given in publication PMC5350519.

Columns and labels:
[1] = biological target: CENP-A^TAP (carboxy-terminally TAP-tagged CENP-A) (human) (UniProt P49450); test: co-IP
[2] = biological target: CENP-A^LAP (CENP-A tagged at an endogenous allele with a LAP tag) (human (endogenous in HeLa)) (UniProt P49450); test: co-IP

Substance	fold depletion of histone H3 in the purified complexes against the input [1] [fold]	percent of the total CENP-A in the affinity-purified complexes [1] [%]	stoichiometry N (CENP-A molecules in a complex) [1]	stoichiometry N (CENP-A molecules in a complex) [2]
histone H3 (from UniProt P68431 1-136) (natural protein)	6250	–	–	–
untagged endogenous CENP-A (from UniProt P49450 1-140) (natural protein)	–	9 to 13	> 2	2
